Results from the nanobody polyreactivity screen of Harvey et al. (2022).

assay: yeast display, Sf9 membrane polyspecificity reagent, FACS + sequencing; frameworks hold sequencing errors
How it was run: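 A nanobody's polyreactivity label depends on the gate it was sorted from. Yeast display cells were stained with 10% biotinylated, detergent-solubilized Sf9 membrane reagent for 1 hour at 4 °C, enriched on streptavidin microbeads and sorted by FACS. The low and high (top ~1%) gates were set on anti-HA fluorescence for expression and streptavidin fluorescence for reagent binding.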

Sequence | polyreactivity (PSR sort gate)
QVQLVESGGGLVQAGGSLRLSCAASGSTFRSYAMGWYRQAPGKERELVAAITSSGGRTYYADSVKGRFTISRDNAKHTVYLQMNSLKPEDTAVYYCAARTYSWGDWGQGTQVTVSS | high polyreactivity
QVQLVESGGGLVQAGGSLRLSCAASGSTFRTKAMGWYRHAPGKERELVAAITSGTRTYYADSVKGRFTLSRDNAKNTVYLQMNSLKPEDTAVYYCAAEYYGSSYSNYRTEYDYWGQGTQVTVSS | low polyreactivity
QVQLVESGGGLVQAGGSLRLSCAASGSTFRTNAMGWYRQAPGKERELVAAISGNGGSTYYADSVKGRFTISRDNAKYNVYLQMNSLKAEDTAVYYCAARRGYRYYPPFGYWGQGTQVTVSS | high polyreactivity
QVQLVESGGGLVQAGGSLRLSCAASGSTFRTNTRGWYRQAPGKERELVAAITKSGGSTYYADSVKGRFTISRDNAKNTVYLQMNSLKPEDTAVYYCAARVLYRSGLRGDYWGQGTQVTVSS | high polyreactivity
QVQLVESGGGLVQAGGSLRLSCAASGSTFRTYAMGWYRQAPGKERELVAAIRSRGGSTYYADSVKGRFTISRDNAKNTVYLLMNSLKPEDTAVYYCNAVPRWSYVDEDSWGQGTQVTVSS | high polyreactivity
QVQLVESGGGLVQAGGSLRLSCAASGSTFRTYAMGWYRQAPGKERELVAAISYNGGSTYYADSVTGRFTISRDNAKNTVYLQMNILKPEDTEVYYFAKDQTGYWYNRYGYWGQGTQVTVSS | low polyreactivity
QVQLVESGGGLVQAGGSLRLSCAASGSTFRTYSMGWYRQAPGKEREWVASITSSGASTYYADSVKGRFTISRDNAKNTVYLQMNSLKPEDTAVYYCAKGYPWYYRYKYDSWGQGTQVTVSS | high polyreactivity
QVQLVESGGGLVQAGGSLRLSCAASGSTFRVNAMGWYRQAPGKERELVAAISFSAGGTYYADSVKGRFTISRDNAKNTVYLQMNSLKPADTAVYYCNARYGGWVWSTYDHWGQGTQVTVSS | low polyreactivity
QVQLVESGGGLVQAGGSLRLSCAASGSTFRVNAMGWYRQAPGKERELVAVITSGGSTYADSVKGRFTISRDNAKNTVYLQMNSLKPEDTAVYYCAAESRWSWVHWSAYTYDYWGQGTQVTVSS | low polyreactivity
QVQLVESGGGLVQAGGSLRLSCAASGSTFRVYAMGWYRQAPGKERELVAAISWSGGRTYYADSVKGRFTISGDNAKNTVYLQMNSLKTEDTAVYYCAADTYGRYDYWGQGTQVTVSS | high polyreactivity
QVQLVESGGGLVQAGGSLRLSCAASGSTFRWNAMGWYRQAPGKERELVAAISNGGSTNYADSVKGRFTISRDNAKNSVYFQMNSLKPEDTAVYYCATDGWYGQHYYDYDFDYYYWGQGTQVTVSS | low polyreactivity
QVQLVESGGGLVQAGGSLRLSCAASGSTFRWNAMGWYRQAPGKERELVAAISSGGRTYYADSVKGRFTISRDNAKNTVYLQMNSLKPEDTAVYYCSARTSRYYYYPYAFYWGQGTQVSVSS | high polyreactivity
QVQLVESGGGLVQAGGSLRLSCAASGSTFRWYAMGWSRQAPGKERELVAAIRRIGSRTYADSVKGRFTISRDNAKNTVYLQMNSLKPEDTAVYYCATRYKYTGYDYWGQGTQVTVSS | high polyreactivity
QVQLVESGGGLVQAGGSLRLSCAASGSTFRWYAMGWYRQAPGKERELVASITRGGGSTYYADSVKGRFTISRDNAKNTVYLQMNSLKPEDTAVYYCAKRSLWSYYEGYYYWGQGTQVTVSS | high polyreactivity
QVQLVESGGGLVQAGGSLRLSCAASGSTFRYNAMGWYRQAPGKERELVAAISKGGGRTYYADSVKGRFTISRDNAKNTVYLQMNSLKPEDTAVYYCAATYGTGRRSKYGYWGQGTQVTVSS | high polyreactivity
QVQLVESGGGLVQAGGSLRLSCAASGSTFRYNAMGWYRQAPGKERELVAAISSGSSTNYADSVKGRFSISRDNAKNTVYLQMNSLKPEDTAVYYCAAQPGYYDDFYYWGQGTQVTVSS | low polyreactivity

Sequence | polyreactivity (PSR sort gate)
QVQLVESGGGLVQAGGSLRLSCAASGSTFRYNAMGWYRQAPGKERELVAAISSSGGSTRYADSVKGRFTISRDNANNTVYLQMNSLKPEDTAVYYCAVRFYDWRYYYWGQGTQVTVSS | high polyreactivity
QVQLVESGGGLVQAGGSLRLSCAASGSTFRYNAMGWYRQAPGKERELVATITSGGYTNYADSVKGRFTISRDNAKNSVYLQMNSLKPVDSAVYYCATDSLFRTYVEWDRKFDYWGQGTQVTVSS | high polyreactivity
QVQLVESGGGLVQAGGSLRLSCAASGSTFRYNAMGWYRQAPGKEREMVATITWSGGSTYYADSVKGRFTISRDNAKNTVYLQMNSLKPEDTAVYYCAKLPFPVYYGGSYKYYYWGLGTQVTVSS | high polyreactivity
QVQLVESGGGLVQAGGSLRLSCAASGSTFRYNAMGWYRQAPGTERELVAAINWSGSSTYYADSVKGRFTISRDNAKKTVYLQMNSLKPEDTAVYYCAAERPWYTKWGEYWGQGTQVTVSS | high polyreactivity
QVQLVESGGGLVQAGGSLRLSCAASGSTFRYYAMGWYRQAPGKERDLVAAINRSGGSTYYADSVKGRFTISRDIAKNTVYLQMNSLKPEDTAVYYCGAPWGRHYTNPDDYWGQGTQVTVSS | high polyreactivity
QVQLVESGGGLVQAGGSLRLSCAASGSTFRYYAMGWYRQAPGKERELVAAINYSGGRTYYADSVKGRFTISRDNAKNTVYLQMNCVKPEDSAVYYCAADWSYLAVTDSTSDYDPNYGYWGQGTQVNVSS | high polyreactivity
QVQLVESGGGLVQAGGSLRLSCAASGSTFRYYAMGWYRQAPGKERELVAAISSAGTTYYADSVKGRFTISRDNAKNTVYLQMNSLKPEDTAVYYCTARFVYHSSFAGFDYWGQGTQVTVSS | low polyreactivity
QVQLVESGGGLVQAGGSLRLSCAASGSTFRYYAMGWYRQAPGKERELVAAISYRGVRTNYADSVKGRFTISRDHAKNTVYLQMNSLKPEDTAVYYCADRFGRSSSGSPYDRYGYWGQGTQVTVSS | high polyreactivity
QVQLVESGGGLVQAGGSLRLSCAASGSTFRYYAMGWYRQAPGKERELVAAITRSGSTYYADSVKGRFTISRDNAKNTVYLQMNSLKREDTAVYYCNADQYYGGRYVYLRHYNYWGQGTQVTVSS | high polyreactivity
QVQLVESGGGLVQAGGSLRLSCAASGSTFRYYAMGWYRQAPGKERELVAGITSAGNTYYADSVKGRFTISRDNAKNTVYLQMNSLKPEDTAVYYCAARRWKGYYYWGQGTQVTVSS | high polyreactivity
QVQLVESGGGLVQAGGSLRLSCAASGSTFRYYAMGWYRQAPGKERELVAVISTSGNTYYADSVKGRFSISRDNAKITVYVQMNSLQPEETAVYYCAARGVGGQISQEYDYWGQGTQVTVSS | low polyreactivity
QVQLVESGGGLVQAGGSLRLSCAASGSTFRYYDMGWYRQAPGKERELVAVISKSGARTYYADSVKGRFTISRDNAKNTVYLQMNSLKPEDTAVYYCIAVFKLDSQYAMGYWGQGTQLTVSS | high polyreactivity
QVQLVESGGGLVQAGGSLRLSCAASGSTFRYYSMGWYRQAPGKERELVASISSGGSTNYADSVKGRFTISRDNAKNTVYLQMNSLKPGDTAVYYCNADSWTVNRRYYYYRYEYWGQGTQVTVSS | low polyreactivity
QVQLVESGGGLVQAGGSLRLSCAASGSTFRYYVMGWYRQAPGKERELVAAISSSGGSTYYADSVKGRFTISRDNAKNTVYLQMNSLKPEDTAVYYCARDKGYVSYRYNYWGQGTQVTVSS | high polyreactivity
QVQLVESGGGLVQAGGSLRLSCAASGSTFRYYVMGWYRQEPGKEREFVAAISAGGGRTYYADSVKGRFTISRDNSKNTVYLQMNSLKPEDTAVYYCAATKGNILRRSRYDYWGQGTQVTVSS | high polyreactivity
